# Measured values as given in the Human Domainome abundance scans (Beltran et al. 2025).
# ± gives the uncertainty stated by the source.
# B1: RanBP-type and C3HC4-type zinc finger-containing protein 1, residues 369 to 411; numbered along this chain, Q9BYM8 (parent)
# chain: YHCKTPDCKGWCFFEDDVNEFTCPVCFHVNCLLCKAIHEQMNC
# Variants of: B1
# Test: abundance fitness (aPCA) (normalised: wild type 0, dead -1); higher = more abundant; growth selection in yeast, the domain comes from the species named
# Details: Homo sapiens
row,Variant,abundance fitness
1,YHCKTPDCKGWCFFEDDVNEFTCPVCFHVNCLLCIAIHEQMNC [K35I],-0.843 ± 0.18
2,YHCKTPDCKGWCFFEDDVNEFTCPVCFHVNCLLCEAIHEQMNC [K35E],-0.026 ± 0.057
3,YHCKTPDCKGWCFFEDDFNEFTCPVCFHVNCLLCKAIHEQMNC [V18F],-0.272 ± 0.068
4,YHCKTPDCKLWCFFEDDVNEFTCPVCFHVNCLLCKAIHEQMNC [G10L],-0.945 ± 0.077
5,YHCKTPDCKNWCFFEDDVNEFTCPVCFHVNCLLCKAIHEQMNC [G10N],-0.79 ± 0.16
6,YHCKTPDCKGWCFFEDDVNEFTCPGCFHVNCLLCKAIHEQMNC [V25G],-0.49 ± 0.055
7,YHCKTPDCKGWCFFEDDVNEFTCPLCFHVNCLLCKAIHEQMNC [V25L],-0.113 ± 0.046
8,YHCKTPKCKGWCFFEDDVNEFTCPVCFHVNCLLCKAIHEQMNC [D7K],-0.095 ± 0.074
9,YHCKTPDCKGWCFGEDDVNEFTCPVCFHVNCLLCKAIHEQMNC [F14G],0.162 ± 0.27
10,YHCKTPDCKGWCFFGDDVNEFTCPVCFHVNCLLCKAIHEQMNC [E15G],-0.204 ± 0.039
11,YHCKTPDCKGWCFFNDDVNEFTCPVCFHVNCLLCKAIHEQMNC [E15N],-0.295 ± 0.075
12,YHCKTPDCKGWCFFEDEVNEFTCPVCFHVNCLLCKAIHEQMNC [D17E],0.06 ± 0.046
13,YHCKTPDCEGWCFFEDDVNEFTCPVCFHVNCLLCKAIHEQMNC [K9E],0.064 ± 0.054
14,YHCKTPDCGGWCFFEDDVNEFTCPVCFHVNCLLCKAIHEQMNC [K9G],-0.042 ± 0.036
15,YHCKTPDCKGWCFFEDDVNEFTCPVMFHVNCLLCKAIHEQMNC [C26M],-1.05 ± 0.42
16,YHCKTPDCKGWCFFEDDVNEFTCPVCFGVNCLLCKAIHEQMNC [H28G],-0.103 ± 0.038
17,YHCKTPDCKGWCFFEDDVNEFTCPVCFAVNCLLCKAIHEQMNC [H28A],0.081 ± 0.043
18,YHCKTPDCKGWCFFEDDVNEFTCPVCQHVNCLLCKAIHEQMNC [F27Q],0.059 ± 0.047
19,YHCKTPDCKGWCFFEMDVNEFTCPVCFHVNCLLCKAIHEQMNC [D16M],-0.244 ± 0.073
20,YHCKTPDCKGWCFFEDDVNEFTCPVCFHVNCLLTKAIHEQMNC [C34T],-0.547 ± 0.068

row,Variant,abundance fitness
1,YHCKTPDCKGWCFFEDDVNEFTCPVCFHVNCDLCKAIHEQMNC [L32D],-0.531 ± 0.12
2,YHCKTPDCKGWCFFEDDVNEFTCPVCFHVNALLCKAIHEQMNC [C31A],-0.805 ± 0.056
3,YHCKTPDCKGWCFFEDDVNEFTCPVCFHVYCLLCKAIHEQMNC [N30Y],-0.614 ± 0.14
4,YHCKTPDCKGWCFFEDDVNEFTCPVCFHVLCLLCKAIHEQMNC [N30L],-1.22 ± 0.16
5,YHCKTPDCKGWCFFEDDVNEFTCPVCFHVCCLLCKAIHEQMNC [N30C],-0.777 ± 0.12
6,YTCKTPDCKGWCFFEDDVNEFTCPVCFHVNCLLCKAIHEQMNC [H2T],-0.149 ± 0.059
7,YHCHTPDCKGWCFFEDDVNEFTCPVCFHVNCLLCKAIHEQMNC [K4H],-0.174 ± 0.067
8,YHCKYPDCKGWCFFEDDVNEFTCPVCFHVNCLLCKAIHEQMNC [T5Y],-0.169 ± 0.098
9,YHCKRPDCKGWCFFEDDVNEFTCPVCFHVNCLLCKAIHEQMNC [T5R],-0.099 ± 0.043
10,YHCKIPDCKGWCFFEDDVNEFTCPVCFHVNCLLCKAIHEQMNC [T5I],-0.533 ± 0.19
11,YHCKTPDCKGWCFFEDDVNEGTCPVCFHVNCLLCKAIHEQMNC [F21G],-0.291 ± 0.04
12,YHCKTPDCKGWCFFEDDVNEHTCPVCFHVNCLLCKAIHEQMNC [F21H],-0.665 ± 0.4
13,YHCKTPDCKGWCFFEDDVNEMTCPVCFHVNCLLCKAIHEQMNC [F21M],-0.188 ± 0.079
14,YHCKTPDCKGWCFFEDDVNEFTCPVCFHVNCLLCKAIHETMNC [Q40T],0.068 ± 0.045
15,CHCKTPDCKGWCFFEDDVNEFTCPVCFHVNCLLCKAIHEQMNC [Y1C],-0.509 ± 0.11
16,YHCKTPDCKGWCFFEDDVNEFTCPVCFHVNCLLCKAIVEQMNC [H38V],-0.803 ± 0.082
17,YHCKTPDCKGWCFFEDDVNEFTCPVCFHVNCLLCKAIHEQLNC [M41L],-0.076 ± 0.049
18,YHCKTPDCKGWCFFEDDVNEFTCPVCFHVNCLLCKAIHEQDNC [M41D],0.094 ± 0.066
19,YHCKTPDCKGWCFFEDDVNEFTCPVCFHVNCLLCKAIHEQCNC [M41C],-0.004 ± 0.068
20,YHCKTPDCKGWCFFEDDVNEFTCPVCFHVNCLLCKAPHEQMNC [I37P],-0.133 ± 0.051

row,Variant,abundance fitness
1,YHCKTPDCKGWCFFEDDVNEFTCPVCFHVNCLLCKAMHEQMNC [I37M],-0.214 ± 0.076
2,YHCKTPDCKGWCFFEDDVNEFTCPVCFHVNCLLCKAEHEQMNC [I37E],-0.181 ± 0.055
3,YHCKTPDCKGWCFFEDDVNFFTCPVCFHVNCLLCKAIHEQMNC [E20F],-0.122 ± 0.07
4,YHCKTPDCKGWCFFEDDVNEFTCPVCFHVNCLECKAIHEQMNC [L33E],-0.073 ± 0.046
5,YHCKTPDCKGWCFFEDDVNEFTCPVCFHVNCLLCKAIHEQMNM [C43M],-0.507 ± 0.43
6,YHCKTPDCKGWCFFEDDVNEFTCPVCFHVNCLLCKAIHEQMNA [C43A],-0.372 ± 0.076
7,YHCKTPDCKGWCFFEDDVTEFTCPVCFHVNCLLCKAIHEQMNC [N19T],0.09 ± 0.047
8,YHCKTPDCKGWCFFEDDVGEFTCPVCFHVNCLLCKAIHEQMNC [N19G],-0.194 ± 0.038
9,YHCKTPDCKGWCFFEDDVNEFTCPVCFHVNCLLCKAIHKQMNC [E39K],-0.021 ± 0.059
10,YHCKTPDCKGWCFFEDDVNEFTCPVCFHVNCLLCKAIHAQMNC [E39A],-0.09 ± 0.049
11,YHCKTPDCKGDCFFEDDVNEFTCPVCFHVNCLLCKAIHEQMNC [W11D],-0.162 ± 0.064
12,YHCKTPDCKGYCFFEDDVNEFTCPVCFHVNCLLCKAIHEQMNC [W11Y],-0.038 ± 0.13
13,YHCKTPDCKGWCFFEDDVNEFTCPVCFHVNCLLCKAIHEQMYC [N42Y],-0.122 ± 0.14
14,YHCKTPDCKGWCFFEDDVNEFTCPVCFHVNCLLCKAIHEQMVC [N42V],-0.141 ± 0.062
15,YHCKTPDCKGWCFFEDDVNEFTCPVCFHVNCLLCKAIHEQMDC [N42D],0.025 ± 0.066
16,YHCKTPDCKGWCFFEDDVNEFKCPVCFHVNCLLCKAIHEQMNC [T22K],-0.102 ± 0.083
17,YHCKTPDCKGWCFFEDDVNEFVCPVCFHVNCLLCKAIHEQMNC [T22V],-0.254 ± 0.051
18,YHCKTPDCKGWCFFEDDVNEFTCPVCFHPNCLLCKAIHEQMNC [V29P],-0.624 ± 0.11
19,YHCKTPDCKGWCFFEDDVNEFTCHVCFHVNCLLCKAIHEQMNC [P24H],-0.676 ± 0.11
